1 molecule from PMC4729957, “The Atg1–kinase complex tethers Atg9-vesicles to initiate autophagy” (Nature Communications, 2016) can be followed below.

For data set [1], the target named is T1, Atg9^core (Atg9^281–779), reconstituted in proteoliposomes (S. cerevisiae, UniProt Q12142 281-779).
T1 construct: Atg9, S. cerevisiae BY4741, conserved core region, residues 281–779; modified pET28a(+) vector; about 50% of the protein in the proteoliposomes has its cytoplasmic domains outside; liposomes of cholesterol, POPE, POPC, POPS, without PI; also called Atg9–PLs; Atg9-PL; source: E. coli Rosetta, solubilised in LDAO, purified (Ni-NTA, SEC), reconstituted in liposomes; not shown: His tag, C-terminal, …
T1 sequence (looked up): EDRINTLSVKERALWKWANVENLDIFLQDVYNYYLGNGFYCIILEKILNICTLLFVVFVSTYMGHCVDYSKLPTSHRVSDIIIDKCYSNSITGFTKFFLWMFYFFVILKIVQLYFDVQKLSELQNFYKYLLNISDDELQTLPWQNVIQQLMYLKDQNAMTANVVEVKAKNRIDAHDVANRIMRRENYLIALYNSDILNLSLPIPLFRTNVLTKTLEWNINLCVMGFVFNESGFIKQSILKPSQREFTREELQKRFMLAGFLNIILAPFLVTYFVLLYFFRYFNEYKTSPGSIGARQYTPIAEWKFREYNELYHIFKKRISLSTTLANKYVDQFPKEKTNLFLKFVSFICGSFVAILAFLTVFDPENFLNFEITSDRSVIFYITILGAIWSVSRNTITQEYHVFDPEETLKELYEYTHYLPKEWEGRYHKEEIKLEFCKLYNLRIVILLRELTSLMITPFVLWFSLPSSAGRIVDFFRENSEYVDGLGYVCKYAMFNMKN
Put plainly: co-floatation with proteoliposomes; Atg9 variant held in proteoliposomes (synthetic lipids without PI), partner in solution at 1:1, Nycodenz step gradient, 650,000g 2 h at 4 °C, 25 mM HEPES pH 7.0, 100 mM NaCl; top fraction read by SDS–PAGE or α-myc immunoblot. The following applies: both partners purified. (A western blot detects proteins with antibodies after separation by electrophoresis.)

Data set [2] concerns the molecule itself. In words: dynamic light scattering; Stokes radii (RH) of the purified proteins and complexes in solution.
In a further data set the target is T2, Atg13 (S. cerevisiae, UniProt Q06628 1-738).
T2 construct: Atg13, S. cerevisiae BY4741, open reading frame from genomic DNA; source: E. coli Rosetta, purified (Ni-NTA, anion exchange)
T2 sequence (looked up): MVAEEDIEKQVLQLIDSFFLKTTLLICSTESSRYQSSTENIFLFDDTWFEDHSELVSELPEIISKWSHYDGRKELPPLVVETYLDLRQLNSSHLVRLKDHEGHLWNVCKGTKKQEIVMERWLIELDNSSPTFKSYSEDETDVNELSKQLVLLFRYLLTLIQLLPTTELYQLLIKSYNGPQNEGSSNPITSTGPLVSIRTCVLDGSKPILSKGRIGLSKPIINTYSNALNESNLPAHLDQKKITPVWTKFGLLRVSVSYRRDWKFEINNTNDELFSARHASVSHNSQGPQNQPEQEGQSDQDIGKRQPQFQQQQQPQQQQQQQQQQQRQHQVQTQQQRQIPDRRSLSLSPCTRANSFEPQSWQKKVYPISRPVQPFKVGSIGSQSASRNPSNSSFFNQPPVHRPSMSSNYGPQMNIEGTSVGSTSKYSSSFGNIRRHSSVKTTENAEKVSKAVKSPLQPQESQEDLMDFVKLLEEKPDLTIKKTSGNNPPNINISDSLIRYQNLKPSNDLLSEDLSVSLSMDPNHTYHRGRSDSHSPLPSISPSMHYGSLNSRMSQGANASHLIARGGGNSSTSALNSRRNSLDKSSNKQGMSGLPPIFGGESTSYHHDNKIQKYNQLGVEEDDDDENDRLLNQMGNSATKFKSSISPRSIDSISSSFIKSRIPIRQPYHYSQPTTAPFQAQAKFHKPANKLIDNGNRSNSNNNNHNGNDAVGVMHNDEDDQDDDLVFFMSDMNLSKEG
Put plainly: SEC; complexes assembled from purified subunits or subcomplexes, 30 min at room temperature, then gel filtration on Superose 6. To be noted: both partners purified. Background: Size exclusion chromatography separates by hydrodynamic size, large species first.

In general, stoichiometry N refers to the number of molecules, sites or subunits per partner or assembly.

B1: Atg17 (natural protein, S. cerevisiae, UniProt Q06410 1-417, looked up)
chain: MNEADVTKFVNNARKTLTDAQLLCSSANLRIVDIKKKLSSWQLSISKLNFLIVGLRQQGKFLYTILKEGIGTKLIQKQWNQAVLVVLVDEMKYWQYEITSKVQRLDGIVNELSISEKDDTDPSKLGDYISRDNVNLLNDKLKEVPVIERQIENIKLQYENMVRKVNKELIDTKLTDVTQKFQSKFGIDNLMETNVAEQFSRELTDLEKDLAEIMNSLTQHFDKTLLLQDKKIDNDEREELFKVVQGDDKELYNIFKTLHEVIDDVDKTILNLGQFLQAKIKEKTELHSEVSEIINDFNRNLEYLLIFKDISNLIDSFKNSCTQDIQTTKELCEFYDNFEESYGNLVLEAKRRKDVANRMKTILKDCEKQLQNLDAQDQEERQNFIAENGTYLPETIWPGKIDDFSSLYTLNYNVKNP
notes: Atg17, S. cerevisiae BY4741, open reading frame from genomic DNA; expressed from pST39; also called full-length Atg17; Atg17-dimer; source: E. coli Rosetta, purified (Ni-NTA, SEC); not shown: His6, N-terminal, cleaved
As to B1, the binding result (in data set [1]; in the data set with Atg13) was “binds” throughout. Further, the “stoichiometry N” value in data set [2] was found to be 2.
